Reference: paper PMC3190738

Each substance was assayed against His-tagged-YFP-PKI-NES (assay: fluorescence polarisation).
“wild type mouse CRM1 (1–1071) (from UniProt Q6P5F9 1-1071) (natural protein)” showed a Kd of 15600 nM.
“CRM1-1–1062 (from UniProt Q6P5F9 1-1062) (domain or fragment)” was tested, and the Kd was 1700 nM.
Work on “CRM1 HEAT 9 loop variant (VLV > AAA) (from UniProt Q6P5F9 1-1071) (natural protein)” yielded a Kd of 200 nM.
Work on “CRM1 1–1062 + VLV > AAA (from UniProt Q6P5F9 1-1062) (domain or fragment)” yielded a Kd of 25 nM.
